Patent US20180371066A1

T1: PEP_2875800
T1 sequence (peptide): DHAGTYGLGDRKDQG

T2: PEP_2875802
T2 sequence (peptide): HAGTYGLGDRKDQGG

T3: PEP_2875828
T3 sequence (peptide): GGYTMHQDQEGDTDA

T4: PEP_2875830
T4 sequence (peptide): GYTMHQDQEGDTDAG

T5: PEP_2875829
T5 sequence (peptide): GGYTMHQDQAADTDA

T6: PEP_2875805
T6 sequence (peptide): AGTYGLGDRAAQGGY

T7: PEP_2875815
T7 sequence (peptide): LGDRKDQGGAAMHQD

T8: PEP_2875807
T8 sequence (peptide): GTYGLGDRKAAGGYT

T9: PEP_2875813
T9 sequence (peptide): GLGDRKDQGAATMHQ

T10: PEP_2875801
T10 sequence (peptide): DHAGTYGLGAAKDQG

T11: PEP_2875803
T11 sequence (peptide): HAGTYGLGDAADQGG


How the values were obtained:
[1] = target: T1, PEP_2875800; assay: peptide array of 15-mers of human tau probed with the antibody; label LIN
[2] = target: T2, PEP_2875802; assay: as above
[3] = target: T3, PEP_2875828; assay: as above
[4] = target: T4, PEP_2875830; assay: as above
[5] = target: T5, PEP_2875829; assay: peptide array of 15-mers of human tau probed with the antibody; label LIN.AA (double alanine)
[6] = target: T6, PEP_2875805; assay: as above
[7] = target: T7, PEP_2875815; assay: as above
[8] = target: T8, PEP_2875807; assay: as above
[9] = target: T9, PEP_2875813; assay: as above
[10] = target: T10, PEP_2875801; assay: as above
[11] = target: T11, PEP_2875803; assay: as above

Row | Binding Signal [1] | Binding Signal [2] | Binding Signal [3] | Binding Signal [4] | Binding Signal [5] | Binding Signal [6] | Binding Signal [7] | Binding Signal [8] | Binding Signal [9] | Binding Signal [10] | Binding Signal [11] | Binder
1 | 61 | 63 | 109 | 77 | 106 | 58 | 69 | 110 | 80 | 52 | 51 | murine anti-tau antibody HJ8.5 (antibody, V domains shown) VH: EVKVEESGGGLVQPGGSMKLSCVVSGFTFSNYWVNWVRQSPEKGLEWVAQIRLKSDNYATHYEESVKGRFTISRDDSKSSVYLQMNNLRAEDSGIYYCTNWEDYWGQGTTLTVSS VL: DIVLTQSPASLAVSLGQRATISCRASQSVSTSRYSYIHWYQQKPGQPPKLLIKYASNLESGVPARFSGSGSGTDFTLNIHPLEEEDAATYYCHHSWEIPLTFGAGTKLELK
2 | 78 | 65 | 110 | 97 | 118 | 76 | 99 | 114 | 65 | 90 | 65 | VH1/VK2 humanized anti-tau antibody (C2N-8E12) (antibody, human IgG4 S228P, kappa, V domains shown) VH: EVKVVESGGGLVQPGGSMKLSCVVSGFTFSNYWVNWVRQAPGKGLEWVAQIRLKSDNYATHYEESVKGRFTISRDDSKSSVYLQMNNLRAEDSGIYYCTNWEDYWGQGTTVTVSS VL: DIVLTQSPDSLAVSLGERATISCRASQSVSTSRYSYIHWYQQKPGQPPKLLIKYASNLESGVPSRFSGSGSGTDFTLNIHPLEPEDFATYYCHHSWEIPLTFGQGTKLEIKR
